Literature values in patent US20150177237.

Molecular target: thrombin (UniProt P00734+P00734)
Settings: n positions 6-20 are abasic (x); CITED known Kd of thrombin for its aptamer; nanopore event ratios at 10-1000 nM thrombin closely match theory from this Kd; 1 M KCl, 10 mM Tris pH 7.5

Sequence: AAAAANNNNNNNNNNNNNNNAAAAAAAAAAGGTTGGTGTGGTTGG [5A15x10A_TBA]
- Kd: 0.05 µM
